Reference: patent US20030105024A1 (STATE OF OREGON, published 2003)
No end group written: not given here.

B2: rat melanocortin-3 receptor (receptor)
chain: MNSSCCPSSSYPTLPNLSQHPAAPSASNRSGSGFCEQVFIKPEVFLALGIVSLMENILVILAVVRNGNLHSPMYFFLLSLLQADLLVSLSNSLETIMIVVINSDSLTLEDQFIQHMDNIFDSMICISLVASICNLLAIAVDRYVTIFYALRYHSIMTVRKALSLIVAIWVCCGICGVMFIVYSESKMVIVCLITMFFAMVLLMGTLYIHMFLFARLHVQRIAALPPADGLAPQQHSCMKGAVTITILLGVFIFCWAPFFLHLVLIITCPTNPYCICYTAHFNTYLVLIMCNSVIDPLIYAFRSLELRNTFKEILCGCNGMNVG
notes: Stably expressed in human 293 cells from pcDNA/neo I; also called rat MC-3 receptor; rat MC3-R

Legend:
[1] = biological target: B2; assay: cell-based or functional assay
[2] = biological target: T1, human melanocortin 4 receptor (human, UniProt P32245 1-332); assay: cell-based or functional assay
T1 chain: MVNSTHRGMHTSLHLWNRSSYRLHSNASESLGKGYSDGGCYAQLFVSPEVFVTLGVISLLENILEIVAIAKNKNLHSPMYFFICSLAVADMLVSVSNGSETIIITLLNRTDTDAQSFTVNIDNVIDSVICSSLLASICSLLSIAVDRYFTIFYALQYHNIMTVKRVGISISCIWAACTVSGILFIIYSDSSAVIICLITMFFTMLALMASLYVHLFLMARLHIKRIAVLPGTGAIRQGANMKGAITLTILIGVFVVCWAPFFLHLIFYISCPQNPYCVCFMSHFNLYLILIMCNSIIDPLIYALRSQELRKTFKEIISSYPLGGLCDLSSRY

[3] = biological target: T2, mouse αMSH (MC-1) receptor (mouse) (UniProt Q01727); assay: cell-based or functional assay
T2 sequence: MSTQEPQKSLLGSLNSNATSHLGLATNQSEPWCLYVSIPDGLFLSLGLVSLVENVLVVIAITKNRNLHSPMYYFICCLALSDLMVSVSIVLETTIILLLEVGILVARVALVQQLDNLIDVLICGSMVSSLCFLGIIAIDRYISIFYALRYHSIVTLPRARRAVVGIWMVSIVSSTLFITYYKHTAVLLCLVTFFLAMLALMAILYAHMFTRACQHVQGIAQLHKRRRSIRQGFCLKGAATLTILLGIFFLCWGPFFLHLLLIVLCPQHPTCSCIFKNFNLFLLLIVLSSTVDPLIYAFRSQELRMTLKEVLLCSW

[4] = biological target: mouse MC-5 melanocortin receptor (mouse) (UniProt P41149); assay: cell-based or functional assay
[5] = biological target: human MC-3 receptor (human) (UniProt P41968); assay: cell-based or functional assay
[6] = biological target: B2; assay: competition with 125I-NDP-MSH on suspended 293 cells expressing rat MC-3 receptor
murine agouti peptide = biological target: T3, murine agouti peptide (mouse, UniProt Q03288 23-131, limits assumed); assay: competition with 125I-[Nle^4, D-Phe^7]α-MSH on 293 cells expressing rat MC-3 receptor; results not shown
T3 construct: Preparation was not homogeneous; also called endogenous mouse agouti peptide
T3 sequence (looked up): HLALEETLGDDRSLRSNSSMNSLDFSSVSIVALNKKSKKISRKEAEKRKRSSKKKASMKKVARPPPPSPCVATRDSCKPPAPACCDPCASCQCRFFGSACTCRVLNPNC

Sequence of mouse MC-5 melanocortin receptor (mouse) (P41149 whole entry): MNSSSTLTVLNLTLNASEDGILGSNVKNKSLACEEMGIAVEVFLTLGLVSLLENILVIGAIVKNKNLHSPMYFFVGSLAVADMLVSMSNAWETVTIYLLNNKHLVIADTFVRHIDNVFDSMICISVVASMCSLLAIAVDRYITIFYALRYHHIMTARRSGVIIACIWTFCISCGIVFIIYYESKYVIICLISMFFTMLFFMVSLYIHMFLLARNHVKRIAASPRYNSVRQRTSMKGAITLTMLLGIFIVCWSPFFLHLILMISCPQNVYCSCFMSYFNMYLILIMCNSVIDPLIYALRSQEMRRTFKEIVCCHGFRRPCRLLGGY
Sequence of human MC-3 receptor (human) (P41968 whole entry): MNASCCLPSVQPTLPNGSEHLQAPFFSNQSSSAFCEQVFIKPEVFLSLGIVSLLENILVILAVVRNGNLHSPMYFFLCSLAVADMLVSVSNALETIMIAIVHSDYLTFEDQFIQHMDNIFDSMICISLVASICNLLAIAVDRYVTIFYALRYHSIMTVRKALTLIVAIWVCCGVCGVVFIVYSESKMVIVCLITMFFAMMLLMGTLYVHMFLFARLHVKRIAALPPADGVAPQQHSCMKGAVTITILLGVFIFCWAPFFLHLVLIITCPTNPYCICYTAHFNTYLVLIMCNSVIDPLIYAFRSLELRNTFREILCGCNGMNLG

## desacetyl-αMSH (from UniProt P01189 138-150) (peptide)
[1]
  Ec50, intracellular cAMP: 8 nM

## Nle^4, D-Phe^7-αMSH (from UniProt P01189 138-150) (peptide)
[2]
  Ec50, adenylate cyclase activity: 11 pM
[3]
  EC50, intracellular cAMP: 0.028 nM

## βMSH (from UniProt P01189 217-234) (peptide)
[4]
  EC50, adenylate cyclase / cAMP-dependent β-galactosidase: 5 nM

## γ2-MSH (from UniProt P01189 77-88) (peptide)
[1]
  Ec50, intracellular cAMP: 3 nM

## SHU9119, Ac-Nle^4-cyclo(Asp^5, D-Nal(2)^7, Lys^10) αMSH-(4-10)-amide (from UniProt P01189 141-147) (peptide)
[5]
  pA2 (method of Schild): 8.3

B1: γ-melanocyte stimulating hormone (peptide, UniProt P01189 77-88, looked up)
peptide: YVMGHFRWDRFG
notes: domain: γMSH; Printed without an index; also called γMSH; γ-MSH
[6]
  Ki: ~50 nM

## SYSMEHFRWGKPVGKKRRPVKVYPNGAEDESAEAFPLEF (peptide, UniProt P01189 138-176, looked up) [adrenocorticotropic hormone]
[2]
  Ec50, adenylate cyclase activity: 680 pM
[3]
  EC50, intracellular cAMP: 8 nM
[1]
  Ec50, intracellular cAMP: 4 nM

## YVMGHFRWDRF (peptide, UniProt P01189 77-87, looked up, ends and bridges not checked) [γ1-MSH]
[1]
  Ec50, intracellular cAMP: 3 nM

## B2
Murine agouti peptide
  binding result: binds

## YVMGHFRWDRFGRRNSSSSGSSGAGQ (peptide, UniProt P01189 77-102, looked up, ends and bridges not checked) [γ3-MSH]
[1]
  Ec50, intracellular cAMP: 6 nM

## MEHFRWG (peptide, UniProt P01189 141-147, looked up, domain: ACTH4-10) [ACTH4-10]
[2]
  Ec50, adenylate cyclase activity: > 100000 pM
[1]
  Ec50, intracellular cAMP: 100 nM

## SYSMEHFRWGKPV (peptide, UniProt P01189 138-150, looked up, ends and bridges not checked, domain: αMSH; also called αMSH; α-MSH) [α-melanocyte stimulating hormone]
[6]
  Ki: ~100 nM
[1]
  Ec50, intracellular cAMP: 4 nM
